This is an account of results in doi:10.1101/2022.09.03.506465 (bioRxiv, 2022).

B1: TSEN34^H255F, subunit of full-length, catalytically inactive human TSEN (natural protein, UniProt Q9BSV6 1-310, looked up)
chain: MLVVEVANGRSLVWGAEAVQALRERLGVGGRTVGALPRGPRQNSRLGLPLLLMPEEARLLAEIGAVTLVSAPRPDSRHHSLALTSFKRQQEESFQEQSALAAEARETRRQELLEKITEGQAAKKQKLEQASGASSSQEAGSSQAAKEDETSDGQASGEQEEAGPSSSQAGPSNGVAPLPRSALLVQLATARPRPVKARPLDWRVQSKDWPHAGRPAHELRYSIYRDLWERGFFLSAAGKFGGDFLVYPGDPLRFFAHYIAQCWAPEDTIPLQDLVAAGRLGTSVRKTLLLCSPQPDGKVVYTSLQWASLQ
B2: TSEN15, subunit of full-length, catalytically inactive human TSEN (natural protein, UniProt Q8WW01 1-171, looked up)
chain: MEERGDSEPTPGCSGLGPGGVRGFGDGGGAPSWAPEDAWMGTHPKYLEMMELDIGDATQVYVAFLVYLDLMESKSWHEVNCVGLPELQLICLVGTEIEGEGLQTVVPTPITASLSHNRIREILKASRKLQGDPDLPMSFTLAIVESDSTIVYYKLTDGFMLPDPQNISLRR
B3: TSEN2^H377F, subunit of full-length, catalytically inactive human TSEN (natural protein, UniProt Q8NCE0 1-465, looked up)
chain: MAEAVFHAPKRKRRVYETYESPLPIPFGQDHGPLKEFKIFRAEMINNNVIVRNAEDIEQLYGKGYFGKGILSRSRPSFTISDPKLVAKWKDMKTNMPIITSKRYQHSVEWAAELMRRQGQDESTVRRILKDYTKPLEHPPVKRNEEAQVHDKLNSGMVSNMEGTAGGERPSVVNGDSGKSGGVGDPREPLGCLQEGSGCHPTTESFEKSVREDASPLPHVCCCKQDALILQRGLHHEDGSQHIGLLHPGDRGPDHEYVLVEEAECAMSEREAAPNEELVQRNRLICRRNPYRIFEYLQLSLEEAFFLVYALGCLSIYYEKEPLTIVKLWKAFTVVQPTFRTTYMAYHYFRSKGWVPKVGLKYGTDLLLYRKGPPFYFASYSVIIELVDDHFEGSLRRPLSWKSLAALSRVSVNVSKELMLCYLIKPSTMTDKEMESPECMKRIKVQEVILSRWVSSRERSDQDDL

For test [1], the target named is T1, TSEN54, subunit of full-length, catalytically inactive human TSEN (human, UniProt Q7Z6J9 1-526).
T1 sequence (looked up): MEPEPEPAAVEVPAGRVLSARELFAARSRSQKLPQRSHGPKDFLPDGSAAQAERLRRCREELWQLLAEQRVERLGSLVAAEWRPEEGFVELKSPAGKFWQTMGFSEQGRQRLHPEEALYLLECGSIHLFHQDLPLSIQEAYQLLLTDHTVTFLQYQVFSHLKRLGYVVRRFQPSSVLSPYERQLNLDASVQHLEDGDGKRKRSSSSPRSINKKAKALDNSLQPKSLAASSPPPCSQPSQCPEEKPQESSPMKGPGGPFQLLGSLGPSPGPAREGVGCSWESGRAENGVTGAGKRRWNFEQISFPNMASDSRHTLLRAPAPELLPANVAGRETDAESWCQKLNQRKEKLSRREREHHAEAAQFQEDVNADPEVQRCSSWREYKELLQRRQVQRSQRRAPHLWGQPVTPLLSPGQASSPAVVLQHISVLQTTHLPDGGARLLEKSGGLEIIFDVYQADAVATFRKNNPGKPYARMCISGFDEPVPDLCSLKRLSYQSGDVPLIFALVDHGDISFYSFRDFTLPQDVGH
The test can be described thus: cryo-EM structure.

Test [2] deals with B1. In words: cryo-EM structure.

Regarding B1, in test [1], the binding result was “binds”.
As to B2, the binding result in test [2] is on record as “binds”.
For B3, in test [1], the binding result is reported as “binds”.
